{"source": "patent US20260263521A1", "about": "“ANTI-CD200R1 ANTIBODY AND USE THEREOF” (AIMED BIO INC., priority 2023, published 2026)", "key": {"[1]": {"biological_target": "T1, CD200R1 on HH (CRL-2105) cells (Homo sapiens, UniProt Q8TD46)", "T1 construct": "HH (CRL-2105) cells, which endogenously express CD200R1; host or cells: HH (CRL-2105) cells", "T1 sequence (Q8TD46 25-348)": "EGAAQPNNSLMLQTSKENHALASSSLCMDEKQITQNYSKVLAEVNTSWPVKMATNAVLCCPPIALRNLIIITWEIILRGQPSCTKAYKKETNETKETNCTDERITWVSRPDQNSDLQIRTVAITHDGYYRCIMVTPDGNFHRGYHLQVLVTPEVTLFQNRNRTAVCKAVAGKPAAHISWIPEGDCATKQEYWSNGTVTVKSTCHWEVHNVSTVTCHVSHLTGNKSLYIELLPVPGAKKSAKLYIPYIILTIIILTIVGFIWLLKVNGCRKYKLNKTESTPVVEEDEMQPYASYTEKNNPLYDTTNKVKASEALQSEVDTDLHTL", "assay": "Cell binding assay (flow cytometry), HH cells", "assay_type": "cell-based", "protocol": "The binding ability of the antibodies identified using unique multifaceted antibody discovery technology was identified in HH (CRL-2105) cells, which endogenously express CD200R1, and Jurkat-CD200R1 cells (Source: DiscoverX), which were generated by intranuclear injection of CD200R1 cDNA.\nHH and Jurkat-CD200R1 cells were maintained in RPMI 1640 medium supplemented with 10% heat-inactivated FBS and 1% Penicillin/Streptomycin (P/S). The cells were washed by centrifugation at 130 g for 5 minutes. The cells were seeded onto 96-well round-bottom plates (SPL, #34296) at a density of 1×10^5 cells/well in Flow cytometry staining buffer (Invitrogen, #00-4222-26) or FACS buffer. The cells were treated with all 16 substances and the positive control LY3454738 (US 2020/0087395, I-4P, at Eli Lilly) a concentration of 500 nM in the IgG1 form. After incubation for 1 hour at 4° C., the cells were treated with Alexa-647 Goat anti-human IgG (H+L) cross-adsorbed secondary antibody (Invitrogen, #A21445) and incubated at 4° C. for an additional 30 minutes. […]\nCell-binding ability was determined in the same manner as in Example 12. For the six active substances primarily selected in Example 12, the isotype was changed to IgG4 or the LALAPG gene was mutated, and binding activity was determined in the two cell lines mentioned above.\nBinding ability was determined in HH, an endogenous T cell line with high CD200R1 expression, and two additional overexpressing cell lines: U937-CD200R overexpressing cells, generated by intranuclear injection of human CD200R1 CDNA into the monocytic cell line U937 (CRL-1593.2) (Source: UMC Utrecht, the Netherlands) and Jurkat-CD200R overexpressing cells, were also cells engineered using a similar method.\nAll cell lines were maintained in RPMI 1640 medium supplemented with 10% heat-inactivated FBS and 1% penicillin/streptomycin (P/S) and cell binding was determined in the same manner as in Example 12. […]\nSpecific binding ability was determined using P001009 WT and antibody-optimized mutants, P001009v1, P001009v2, P001009v3, and P001009v4. […]"}, "[2]": {"tested_on": "contact dermatitis animal model", "assay": "Contact dermatitis animal model (oxazolone)", "assay_type": "in vivo, C57BL/6 mice", "settings": "20 mg/kg intravenously", "protocol": "An in vivo contact dermatitis animal model was established to evaluate the anti-inflammatory efficacy of the anti-CD200R1 antibody. Ten-week-old female C57BL/6 mice were used for the contact dermatitis model. The animals were anesthetized and the abdominal hair thereof was removed. The following day, the shaved abdominal area was sensitized with 100 μL of 3% oxazolone in ethanol. Seven days after sensitization, P001009v1 was administered intravenously at a dose of 20 mg/kg. Four hours later, the thickness of both ears was measured. Then, both ears were sensitized with 2% oxazolone in 10 μL of ethanol. The thickness of both ears was measured again at 24 and 48 hours, and changes in ear edema thickness were recorded. Statistical analysis was performed using one-way ANOVA."}, "[3]": {"biological_target": "T2, human CD200R1 (Homo sapiens, UniProt Q8TD46)", "T2 sequence (Q8TD46 25-348)": "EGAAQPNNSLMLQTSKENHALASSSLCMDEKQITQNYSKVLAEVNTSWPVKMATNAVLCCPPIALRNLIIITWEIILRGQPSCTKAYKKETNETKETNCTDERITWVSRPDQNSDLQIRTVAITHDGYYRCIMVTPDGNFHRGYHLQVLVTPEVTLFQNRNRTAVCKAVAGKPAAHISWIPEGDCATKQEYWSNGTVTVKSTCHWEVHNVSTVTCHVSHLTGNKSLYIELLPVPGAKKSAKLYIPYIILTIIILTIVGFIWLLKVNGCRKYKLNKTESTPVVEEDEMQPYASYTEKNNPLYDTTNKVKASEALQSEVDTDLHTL", "assay": "ELISA binding to human CD200R1", "settings": "ELISA, Example 14", "protocol": "96-well plates were coated with human CD200R1 (R&D systems, 3414-CD) and mouse CD200R1 protein (R&D systems, 2554-CD) at a concentration of 2 μg/mL at 4° C. for 16 hours and then were blocked with 3% skim milk. The result was treated with the antibodies at concentrations of 300 nM, 60 nM, 12 nM, 2.4 nM, 0.48 nM, 0.096 nM, and 0.0192 nM, and reacted at room temperature for 2 hours.\nThe result was washed with PBST and distilled water, the samples were bound with a goat-derived HRP-conjugated anti-human antibody (Invitrogen, 31482, Goat anti-Human IgG F(ab′)2 Secondary Antibody, HRP) for 1 hour at room temperature, and then washed again with PBST and distilled water. Color was developed with a TMB substrate solution (Thermo Scientific, 34029, 1-Step™ TMB-ELISA Ultra Substrate Solution). The color reaction was stopped with stop solution (Invitrogen, SS04, ELISA Stop Solution). The absorbance was measured at an optical density of 450 nm."}, "[4]": {"tested_on": "monkey CD200R1", "assay": "ELISA binding to monkey CD200R1", "settings": "Example 14", "from_the_text": "Therefore, the LC D51 and LC D92 sequences were not substituted during the optimization process. However, since LC N30 and LC N31 can play an important role in the specific binding of antibodies as paratopes, the sequences were substituted and optimized. Through rational design, LC S52 and LC S94 were substituted with K and R, respectively, to derive P001009v1, and LC S52 and LC D93 were substituted with K and R, respectively, to derive P001009v2. Further, P001009v3, in which LC N30 was substituted with S, and P001009v4, in which LC N31 was substituted with K, were derived and produced, and the binding ability to human, mouse, and monkey CD200R1 was analyzed by ELISA (FIG. 15). […] Both […] and variants thereof had very weak binding ability to mouse CD200R1 at concentrations up to 300 nM."}}, "data": [{"molecule": "P001009: phage display anti-CD200R1 clone; VH SEQ ID NO: 79, VL SEQ ID NO: 94 (antibody, V domains shown) VH: EVQLLESGGGLVQPGGSLRLSCAASGFTFSSYDMSWVRQAPGKGLEWVSWISHGGGSIYYADSVKGRFTISRDNSKNTLYLQMNSLRAEDTAVYYCARDAPAYSAPLFDYWGQGTLVTVSS VL: QSVLTQPPSASGTPGQRVTISCSGSSSNIGNNAVNWYQQLPGTAPKLLIYYDSNRPSGVPDRFSGSKSGTSASLAISGLRSEDEADYYCAAWDDSLSGYVFGGGTKLTVL", "values": [{"measurement": "cell binding ability, IgG4 or LALAPG mutants", "setting": "[1]; HH cells", "value": "highest efficacy"}]}, {"molecule": "P001009v1: P001009 variant, LC S52 and LC S94 substituted with K and R; VH SEQ ID NO: 79 (antibody, V domains shown) VH: EVQLLESGGGLVQPGGSLRLSCAASGFTFSSYDMSWVRQAPGKGLEWVSWISHGGGSIYYADSVKGRFTISRDNSKNTLYLQMNSLRAEDTAVYYCARDAPAYSAPLFDYWGQGTLVTVSS VL: QSVLTQPPSASGTPGQRVTISCSGSSSNIGNNAVNWYQQLPGTAPKLLIYYDKNRPSGVPDRFSGSKSGTSASLAISGLRSEDEADYYCAAWDDRLSGYVFGGGTKLTVL", "values": [{"measurement": "anti-inflammatory efficacy after 48 hours", "setting": "[2]; 48 hours", "value": "maintained"}, {"measurement": "anti-inflammatory response (ear edema thickness)", "setting": "[2]; compared to control group", "value": "significant anti-inflammatory response"}, {"measurement": "binding ability to human CD200R1 compared to parent", "setting": "[3]", "value": "improved"}, {"measurement": "binding ability to HH cell line", "setting": "[1]; serial dilution from 100 nM", "value": "exhibited binding ability"}, {"measurement": "binding ability to monkey CD200R1 compared to parent", "setting": "[4]", "value": "improved"}]}]}
